We go through 20 variants from the supplement of paper PMC7125110.

B1: glmS ribozyme (parent)
chain: AUAAAAGCGCCAGAACUACAGAAAUGUAGUUGACGAGGAGGAGGUUUAUCGAAUUUUCGGCGGAUGCCUCCAAA

± gives the standard error. For part of these data: This sample holds only a part of the variants without activity.

Holding throughout (details): with glucosamine-6-phosphate
Series [1] covers variants of B1. In words: kcat; higher = faster cleavage; RNA array. The procedure, abridged: (§1)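 Glucosamine-6-phosphate (40 μM to 10 mM) in HEPES/KCl/Mg(OAc)2 buffer was flowed over sequenced MiSeq chips, and tiles were imaged over ~14 h. Barcoded ribozyme variants there had been transcribed in situ by E. coli RNA polymerase and were tracked through a hybridised Cy3 probe at 37 °C. One- or two-exponential decay fits to per-tile medians, normalised to baseline and to non-cleaving reference variants, gave kobs. kcat and KM came from weighted Michaelis–Menten fits across concentrations.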

Variants of B1 are the subject of series [2]. The series is described as follows: self-cleavage kobs at 2500 uM GlcN6P; higher = faster cleavage; RNA array. The procedure, abridged:
as §1

In series [3] the parent is B1. In words: self-cleavage kobs at 10000 uM GlcN6P; higher = faster cleavage; RNA array. The procedure, abridged: as §1
The variants in series [4] derive from B1. In words: KM; higher = weaker cofactor use; RNA array. A digest of the protocol: as §1
In series [5] the parent is B1. In words: self-cleavage kobs at 160 uM GlcN6P; higher = faster cleavage; RNA array. A digest of the protocol: as §1
The variants in series [6] derive from B1. The series is described as follows: self-cleavage kobs at 640 uM GlcN6P; higher = faster cleavage; RNA array. A digest of the protocol:
as §1

Series [7] covers variants of B1. In words: self-cleavage kobs at 40 uM GlcN6P; higher = faster cleavage; RNA array. A digest of the protocol: as §1

For G41A A42C, the kcat with glucosamine-6-phosphate [1] is 4.51e-05 ± 1.7e-05 s⁻¹. In addition, the “self-cleavage kobs at 2500 uM GlcN6P” value with glucosamine-6-phosphate [2] stood at 6.51e-05 ± 1.8e-05 s⁻¹. Besides, in the series with glucosamine-6-phosphate [3], the “self-cleavage kobs at 10000 uM GlcN6P” value worked out at 3.53e-05 ± 1.3e-05 s⁻¹.

As for U49G U55G, the kcat with glucosamine-6-phosphate [1] was 0.000836 ± 7.3e-05 s⁻¹. In the series with glucosamine-6-phosphate [4], the KM was determined as 1400 ± 250 µM. For the same variant, the “self-cleavage kobs at 160 uM GlcN6P” value in the series with glucosamine-6-phosphate [5] was found to be 8.7e-05 ± 1.8e-05 s⁻¹. Moreover, the “self-cleavage kobs at 640 uM GlcN6P” value with glucosamine-6-phosphate [6] was 0.000247 ± 5e-05 s⁻¹. The “self-cleavage kobs at 2500 uM GlcN6P” value with glucosamine-6-phosphate [2] was determined as 0.000582 ± 6.3e-05 s⁻¹. The “self-cleavage kobs at 10000 uM GlcN6P” value with glucosamine-6-phosphate [3] was 0.000687 ± 9.4e-05 s⁻¹.

Turning to G13U G32A, in the series with glucosamine-6-phosphate [1], the kcat turned out to be 0.00326 ± 0.00047 s⁻¹. The KM in the series with glucosamine-6-phosphate [4] came out at 3530 ± 710 µM. The “self-cleavage kobs at 40 uM GlcN6P” value in the series with glucosamine-6-phosphate [7] amounted to 4.41e-05 ± 7.3e-06 s⁻¹. Besides, in the series with glucosamine-6-phosphate [5], the “self-cleavage kobs at 160 uM GlcN6P” value is 0.000153 ± 1.8e-05 s⁻¹. The “self-cleavage kobs at 640 uM GlcN6P” value in the series with glucosamine-6-phosphate [6] is 0.000465 ± 5e-05 s⁻¹. In addition, in the series with glucosamine-6-phosphate [2], the “self-cleavage kobs at 2500 uM GlcN6P” value was found to be 0.00124 ± 0.00013 s⁻¹. Further, the “self-cleavage kobs at 10000 uM GlcN6P” value in the series with glucosamine-6-phosphate [3] is 0.00258 ± 0.00026 s⁻¹.

A64G C68A: in the series with glucosamine-6-phosphate [1], the kcat is below 1e-05 s⁻¹.

For A14G A15U C68G, the catalytic constant (kcat) in the series with glucosamine-6-phosphate [1] was found to be 8.39e-05 ± 2.5e-05 s⁻¹. Moreover, in the series with glucosamine-6-phosphate [5], the “self-cleavage kobs at 160 uM GlcN6P” value is 5.83e-05 ± 2.5e-05 s⁻¹. Also, in the series with glucosamine-6-phosphate [6], the “self-cleavage kobs at 640 uM GlcN6P” value is 4.44e-05 ± 1.3e-05 s⁻¹. The “self-cleavage kobs at 2500 uM GlcN6P” value in the series with glucosamine-6-phosphate [2] was 9.14e-05 ± 2.3e-05 s⁻¹. Also, the “self-cleavage kobs at 10000 uM GlcN6P” value in the series with glucosamine-6-phosphate [3] was found to be 7.97e-05 ± 2.3e-05 s⁻¹.

Turning to A33C A39C, in the series with glucosamine-6-phosphate [1], the kcat was determined as 3.87e-05 ± 3.3e-06 s⁻¹. For the same variant, the “self-cleavage kobs at 2500 uM GlcN6P” value with glucosamine-6-phosphate [2] was found to be 3.92e-05 ± 8e-06 s⁻¹. Besides, the “self-cleavage kobs at 10000 uM GlcN6P” value with glucosamine-6-phosphate [3] is 3.54e-05 ± 7.3e-06 s⁻¹.

For U65G U69A, the kcat in the series with glucosamine-6-phosphate [1] stood at 0.000187 ± 3.2e-05 s⁻¹. Besides, the KM with glucosamine-6-phosphate [4] was 1450 ± 480 µM. Besides, the “self-cleavage kobs at 640 uM GlcN6P” value with glucosamine-6-phosphate [6] was found to be 5.5e-05 ± 1.2e-05 s⁻¹. For the same variant, the “self-cleavage kobs at 2500 uM GlcN6P” value in the series with glucosamine-6-phosphate [2] was found to be 0.000116 ± 2.2e-05 s⁻¹. The “self-cleavage kobs at 10000 uM GlcN6P” value in the series with glucosamine-6-phosphate [3] amounted to 0.000174 ± 5.3e-05 s⁻¹.

In the case of G38C C68A, the kcat with glucosamine-6-phosphate [1] is 1.39e-05 ± 4.4e-06 s⁻¹. Further, the “self-cleavage kobs at 40 uM GlcN6P” value in the series with glucosamine-6-phosphate [7] was below 1e-05 s⁻¹.

Regarding A33U, the kcat in the series with glucosamine-6-phosphate [1] stood at 0.00014 ± 3.2e-06 s⁻¹. Further, the KM with glucosamine-6-phosphate [4] turned out to be 2770 ± 160 µM. In the series with glucosamine-6-phosphate [6], the “self-cleavage kobs at 640 uM GlcN6P” value amounted to 2.78e-05 ± 1.1e-06 s⁻¹. Besides, in the series with glucosamine-6-phosphate [2], the “self-cleavage kobs at 2500 uM GlcN6P” value is 6.53e-05 ± 1.2e-06 s⁻¹. Also, the “self-cleavage kobs at 10000 uM GlcN6P” value with glucosamine-6-phosphate [3] was found to be 0.000111 ± 1.4e-06 s⁻¹.

Consider A14U U30A, for which, in the series with glucosamine-6-phosphate [1], the turnover number (kcat) turned out to be 0.00136 ± 0.00037 s⁻¹. The KM in the series with glucosamine-6-phosphate [4] was determined as 2250 ± 960 µM. For the same variant, the “self-cleavage kobs at 40 uM GlcN6P” value with glucosamine-6-phosphate [7] was 3.62e-05 ± 1e-05 s⁻¹. For the same variant, the “self-cleavage kobs at 160 uM GlcN6P” value with glucosamine-6-phosphate [5] is 8.35e-05 ± 1.7e-05 s⁻¹. Further, in the series with glucosamine-6-phosphate [6], the “self-cleavage kobs at 640 uM GlcN6P” value turned out to be 0.000337 ± 5.2e-05 s⁻¹. Moreover, in the series with glucosamine-6-phosphate [2], the “self-cleavage kobs at 2500 uM GlcN6P” value worked out at 0.000564 ± 9.8e-05 s⁻¹. In addition, the “self-cleavage kobs at 10000 uM GlcN6P” value with glucosamine-6-phosphate [3] was determined as 0.00134 ± 0.00021 s⁻¹.

As to A15U U65A, the kcat with glucosamine-6-phosphate [1] amounted to 0.000377 ± 6.3e-05 s⁻¹. In addition, the KM with glucosamine-6-phosphate [4] is 1080 ± 410 µM. For the same variant, the “self-cleavage kobs at 160 uM GlcN6P” value with glucosamine-6-phosphate [5] worked out at 6.26e-05 ± 2.2e-05 s⁻¹. Moreover, the “self-cleavage kobs at 640 uM GlcN6P” value with glucosamine-6-phosphate [6] was determined as 0.000146 ± 2.3e-05 s⁻¹. Besides, the “self-cleavage kobs at 2500 uM GlcN6P” value with glucosamine-6-phosphate [2] amounted to 0.00021 ± 4.1e-05 s⁻¹. Moreover, the “self-cleavage kobs at 10000 uM GlcN6P” value with glucosamine-6-phosphate [3] stood at 0.00039 ± 5.6e-05 s⁻¹.

As to G9U C34G C58G C68U, the kcat with glucosamine-6-phosphate [1] was 4.14e-05 ± 1.9e-05 s⁻¹. Also, the “self-cleavage kobs at 160 uM GlcN6P” value with glucosamine-6-phosphate [5] came to 5.81e-05 ± 2.8e-05 s⁻¹.

With C50A C61U, in the series with glucosamine-6-phosphate [1], the kcat was below 1e-05 s⁻¹. In the series with glucosamine-6-phosphate [6], the “self-cleavage kobs at 640 uM GlcN6P” value is below 1e-05 s⁻¹.

As for G66C C67G, the kcat with glucosamine-6-phosphate [1] is 2.61e-05 ± 7.8e-06 s⁻¹. In the series with glucosamine-6-phosphate [6], the “self-cleavage kobs at 640 uM GlcN6P” value came out at 2.84e-05 ± 1.3e-05 s⁻¹.

With C16U U57G C61A, the kcat in the series with glucosamine-6-phosphate [1] stood at 1.37e-05 ± 2e-06 s⁻¹.

Turning to A14G G37C, in the series with glucosamine-6-phosphate [1], the kcat stood at 0.000101 ± 3.2e-05 s⁻¹. Also, the “self-cleavage kobs at 640 uM GlcN6P” value with glucosamine-6-phosphate [6] came to 5.36e-05 ± 1.6e-05 s⁻¹. For the same variant, the “self-cleavage kobs at 2500 uM GlcN6P” value in the series with glucosamine-6-phosphate [2] turned out to be 4.49e-05 ± 9e-06 s⁻¹. Further, the “self-cleavage kobs at 10000 uM GlcN6P” value with glucosamine-6-phosphate [3] is 8.64e-05 ± 9.6e-06 s⁻¹.

As to A36G C67A, the kcat in the series with glucosamine-6-phosphate [1] was below 1e-05 s⁻¹.

As to U30G G32A U49G, the kcat with glucosamine-6-phosphate [1] stood at 6.41e-05 ± 1.8e-05 s⁻¹. In addition, the “self-cleavage kobs at 2500 uM GlcN6P” value in the series with glucosamine-6-phosphate [2] came out at 6.89e-05 ± 2.1e-05 s⁻¹. For the same variant, the “self-cleavage kobs at 10000 uM GlcN6P” value with glucosamine-6-phosphate [3] amounted to 5.26e-05 ± 1.5e-05 s⁻¹.

For the variant A64G U65G, the kcat with glucosamine-6-phosphate [1] amounted to 0.00619 ± 0.0017 s⁻¹. In addition, the KM in the series with glucosamine-6-phosphate [4] turned out to be 4490 ± 1700 µM. In the series with glucosamine-6-phosphate [7], the “self-cleavage kobs at 40 uM GlcN6P” value came out at 5.76e-05 ± 1e-05 s⁻¹. For the same variant, in the series with glucosamine-6-phosphate [5], the “self-cleavage kobs at 160 uM GlcN6P” value was determined as 0.000262 ± 6e-05 s⁻¹. Further, in the series with glucosamine-6-phosphate [6], the “self-cleavage kobs at 640 uM GlcN6P” value worked out at 0.000845 ± 0.00015 s⁻¹. Also, the “self-cleavage kobs at 2500 uM GlcN6P” value with glucosamine-6-phosphate [2] stood at 0.00174 ± 0.00029 s⁻¹. Further, in the series with glucosamine-6-phosphate [3], the “self-cleavage kobs at 10000 uM GlcN6P” value amounted to 0.00489 ± 0.00066 s⁻¹.

On to A6U U30A A36C, for which the kcat with glucosamine-6-phosphate [1] was below 1e-05 s⁻¹. The “self-cleavage kobs at 160 uM GlcN6P” value in the series with glucosamine-6-phosphate [5] is below 1e-05 s⁻¹. Further, in the series with glucosamine-6-phosphate [3], the “self-cleavage kobs at 10000 uM GlcN6P” value was below 1e-05 s⁻¹.
